Consider three molecules from patent US20150158912A1 (CLEVELAND CLINIC FOUNDATION, published 2015).

Assay [1] addresses T1, Act1 in IL-17RB-deficient MEFs reconstituted with Myc-tagged IL-17RB (mouse (cells are mouse embryonic …, UniProt Q8N7N6 1-555)).
T1 construct: That the co-precipitated Act1 is the cells' own is read from the description of the experiment
T1 sequence (looked up): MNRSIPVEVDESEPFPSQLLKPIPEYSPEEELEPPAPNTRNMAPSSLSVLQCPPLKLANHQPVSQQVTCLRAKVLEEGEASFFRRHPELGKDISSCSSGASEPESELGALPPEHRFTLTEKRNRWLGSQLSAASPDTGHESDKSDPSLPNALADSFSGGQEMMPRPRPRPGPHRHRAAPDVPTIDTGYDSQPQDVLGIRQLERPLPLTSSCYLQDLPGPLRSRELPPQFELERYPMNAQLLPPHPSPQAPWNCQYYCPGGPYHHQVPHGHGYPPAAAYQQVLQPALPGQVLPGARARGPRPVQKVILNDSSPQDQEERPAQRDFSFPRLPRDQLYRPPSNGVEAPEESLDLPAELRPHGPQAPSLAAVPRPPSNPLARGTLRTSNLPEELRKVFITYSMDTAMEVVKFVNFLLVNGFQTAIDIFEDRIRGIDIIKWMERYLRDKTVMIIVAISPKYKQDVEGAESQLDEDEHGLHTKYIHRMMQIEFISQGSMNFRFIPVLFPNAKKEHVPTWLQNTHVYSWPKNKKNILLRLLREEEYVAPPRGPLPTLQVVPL
The assay can be described thus: co-immunoprecipitation in reconstituted IL-17RB-deficient MEFs (IP anti-Myc).

The target in assay [2] is T2, V5-tagged human IL-17RA, wild type (human, UniProt Q96F46 33-866, limits assumed).
T2 construct: Expressed in HeLa cells and immunoprecipitated from the lysate; also called V5-tagged IL-17RA; the wild-type receptor
T2 sequence (looked up): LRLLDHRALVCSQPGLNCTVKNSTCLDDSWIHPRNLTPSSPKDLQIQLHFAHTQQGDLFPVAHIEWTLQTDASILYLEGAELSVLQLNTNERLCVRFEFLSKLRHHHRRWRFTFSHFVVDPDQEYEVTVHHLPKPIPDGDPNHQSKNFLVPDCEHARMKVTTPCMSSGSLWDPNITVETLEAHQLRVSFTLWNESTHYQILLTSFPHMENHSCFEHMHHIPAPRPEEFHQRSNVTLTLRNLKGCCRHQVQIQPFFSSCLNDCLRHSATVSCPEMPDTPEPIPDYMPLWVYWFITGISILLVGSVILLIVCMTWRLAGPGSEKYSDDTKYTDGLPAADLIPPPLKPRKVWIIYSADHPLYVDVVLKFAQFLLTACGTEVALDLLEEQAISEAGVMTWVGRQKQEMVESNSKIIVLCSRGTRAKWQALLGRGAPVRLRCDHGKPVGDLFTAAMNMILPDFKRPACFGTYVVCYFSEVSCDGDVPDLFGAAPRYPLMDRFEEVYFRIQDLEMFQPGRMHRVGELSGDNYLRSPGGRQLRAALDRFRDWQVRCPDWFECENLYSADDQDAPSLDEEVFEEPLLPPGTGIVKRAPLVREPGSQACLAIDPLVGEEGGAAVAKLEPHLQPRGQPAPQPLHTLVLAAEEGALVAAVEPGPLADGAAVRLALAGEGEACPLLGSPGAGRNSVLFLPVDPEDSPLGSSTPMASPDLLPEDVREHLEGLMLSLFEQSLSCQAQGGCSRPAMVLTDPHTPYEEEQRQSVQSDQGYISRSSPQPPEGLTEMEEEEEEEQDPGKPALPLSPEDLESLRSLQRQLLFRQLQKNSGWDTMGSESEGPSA
Nature of the assay: co-immunoprecipitation, as told back in Example 9.

B1: Myc-tagged mouse IL-17RB point mutant L419D (receptor, UniProt Q9JIP3 18-499, looked up)
chain: REPTIQCGSETGPSPEWMVQHTLTPGDLRDLQVELVKTSVAAEEFSILMNISWILRADASIRLLKATKICVSGKNNMNSYSCVRCNYTEAFQSQTRPSGGKWTFSYVGFPVELSTLYLISAHNIPNANMNEDSPSLSVNFTSPGCLNHVMKYKKQCTEAGSLWDPDITACKKNEKMVEVNFTTNPLGNRYTILIQRDTTLGFSRVLENKLMRTSVAIPVTEESEGAVVQLTPYLHTCGNDCIRREGTVVLCSETSAPIPPDDNRRMLGGWLPLFLVLLVAVWVLAAGIYLTWRQGRSTKTSFPISTMLLPLIKVLVVYPSEICFHHTVCRFTDFLQNYCRSEVILEKWQKKKIAEMGPVQWLTTQKQAADKVVFLLPSDVPTLCDSACGHNEGSARENSQDDFPLAFNLFCSDFSSQTHLHKYLVVYLGGADLKGDYNALSVCPQYHLMKDATAFHTELLKATQSMSVKKRSQACHDSCSPL
In the case of B1, the binding result in assay [1] is listed as “no binding”.

B2: Myc-tagged mouse IL-17RB point mutant L422D (receptor, UniProt Q9JIP3 18-499, looked up)
chain: REPTIQCGSETGPSPEWMVQHTLTPGDLRDLQVELVKTSVAAEEFSILMNISWILRADASIRLLKATKICVSGKNNMNSYSCVRCNYTEAFQSQTRPSGGKWTFSYVGFPVELSTLYLISAHNIPNANMNEDSPSLSVNFTSPGCLNHVMKYKKQCTEAGSLWDPDITACKKNEKMVEVNFTTNPLGNRYTILIQRDTTLGFSRVLENKLMRTSVAIPVTEESEGAVVQLTPYLHTCGNDCIRREGTVVLCSETSAPIPPDDNRRMLGGWLPLFLVLLVAVWVLAAGIYLTWRQGRSTKTSFPISTMLLPLIKVLVVYPSEICFHHTVCRFTDFLQNYCRSEVILEKWQKKKIAEMGPVQWLTTQKQAADKVVFLLPSDVPTLCDSACGHNEGSARENSQDLFPDAFNLFCSDFSSQTHLHKYLVVYLGGADLKGDYNALSVCPQYHLMKDATAFHTELLKATQSMSVKKRSQACHDSCSPL
Turning to B2, the binding result in assay [1] is listed as “no binding”.

B3: FLAG-tagged mouse Act1 point mutant H472D (other, UniProt Q8N7N6 1-555, looked up)
chain: MNRSIPVEVDESEPFPSQLLKPIPEYSPEEELEPPAPNTRNMAPSSLSVLQCPPLKLANHQPVSQQVTCLRAKVLEEGEASFFRRHPELGKDISSCSSGASEPESELGALPPEHRFTLTEKRNRWLGSQLSAASPDTGHESDKSDPSLPNALADSFSGGQEMMPRPRPRPGPHRHRAAPDVPTIDTGYDSQPQDVLGIRQLERPLPLTSSCYLQDLPGPLRSRELPPQFELERYPMNAQLLPPHPSPQAPWNCQYYCPGGPYHHQVPHGHGYPPAAAYQQVLQPALPGQVLPGARARGPRPVQKVILNDSSPQDQEERPAQRDFSFPRLPRDQLYRPPSNGVEAPEESLDLPAELRPHGPQAPSLAAVPRPPSNPLARGTLRTSNLPEELRKVFITYSMDTAMEVVKFVNFLLVNGFQTAIDIFEDRIRGIDIIKWMERYLRDKTVMIIVAISPKYKQDVEGAESQLDEDEHGLDTKYIHRMMQIEFISQGSMNFRFIPVLFPNAKKEHVPTWLQNTHVYSWPKNKKNILLRLLREEEYVAPPRGPLPTLQVVPL
On to B3, for which, in assay [2], the binding result was “no binding”.
